Data on 22 sequences can be found in a protein production outcome set (Wang et al. 2014).

The series can be described thus: label from the status in PepcDB records.
“MTNLVDKAAHSFATQNVVFQTLATASGKLVGVVTLNVEKALNALDLDMVRAMTVQLNLWKKDPLIACVVLDGSGEKAFCAGGDVRALYHASVAAKGQVTEVAKVFFEEEYRLDYLLHTYGKPVLVWGDGIVMGGGLGLMAGASHKVVTETSRIAMPEVTIGLYPDVGGSYFLNRMPGKMGLFLGLTAYHMNAADACYVGLADHYLNRDDKELMFDAMATLDWSDSPALNHQRLDTMINELSNQVDIPKGDSVLAESQEMIDRLMAGSLTDIVTRMSTLSTDEAWLSKACATMLAGSPISWHLAYIQTQLGTKLSLAQCFKWELTVSVNVCAKGDFCEGVRALLIDKDKQPKWQFADVQSVPNSVIEDILTSPWGEEHPLSQLS”: the protein production result was “not failed”.

Consider “MTNNQKLVGRHKRLAFMKVGTEGTYDRITGFTSLIEGKEAKEYARQYIDEATERTDVVGYATGIEYAFDRYTNNAVHEKIANITDDELLGVDAQVEIVSVDVFEEKAGGKYPARKRTYSVVPDTTGDGTDALIYSGNFKAVSEIVKGYCTTTDKWQTCTFVEGEIPAEALEHHHHHH”, for which the protein production entry was “not failed”.

In the case of “MTNPEATDKEGKNYALFIGDTVLVGEQSPASVMTPSKKKIKNVGIFIKDDSDEEDVDDKKTAKEDQGTEILGRSKRNAVLESKLRNEINTEEKRKEHQRELAQQLNERAKDRLARQGNSKEVEKVRKNTVSYKSISQMPREPEVKELKLYVDKKYETV”, the protein production result was “failed”.

For “MTNPETASDNSRDLVLVRRFDAPCDLVFRAWTDPKALAQWCGPHGFKAVGDRLEAWPGGRHRACLIAPDGEEHWVGGKYLEVEPPHRLVFTHAWETGAGETSPETIVTITLRESDGGTEMTFRQSGFASVSSLEGHESGWSQSFERLSSFLGTGSEGLNHA”, the protein production entry is “failed”.

Regarding “MTNQEQSGDGGRLAPRPVERPPVDPAAQRTFGRPAGVEGSFLGAGQYQDQGEYAPKDQPPDPVLAEAFGRPRGTSETLQRHPTDAGALEAERLGDEDVTDDPWRDPSAPVALGTPAQPPPPPVYVNAPTGKLGLREVLFGGRVSWIALLTLALVAVLIAFVGGWVGQKTAGTVQAFTTSKVTLETGDHPDPDAGRFEQVAAAVADSVVTIEAKSKTEGSQGSGVVVDGKGYIVTNNHVISEAATKPADFQITVVFNDGKEVPANLVGRDPKTDLAVLKVDNVDNLTVAKLGDSEKIRVGEEVIAAGAPLGLRSTVTHGIVSALHRPVPLSGDGSDTDTVIDGVQTDASINHGNSGGPLINMNAEVIGINTAGKSLSDSASGLGFAIPVNEVKEVVETLVKDGKVAHPTLLVNAVTVSNSVASGAQIKNVVENGPAGKAGMLENDVVVKVGDRKVADADEFVVAVRQLKIGQEAPIEVVRDGRPLTLMVTPIGDDQKAQ”, the protein production entry was “failed”.

Regarding “MTNQRTMVVGYDGSEESNLAVQWAAKHAILRDCSLHVVHCSLWVLLSHNRGPVPGVADSGLERAAQKVLEEGMALAKETVPDLEVRTTLLHGMPRDHLAHVSVGAEMLVLGSRGLGGFMGLLVGSVSLEMAATAECPVVVIRADDHPEGPVLLAVDDAGSPAALEDACDFAAATGADLMIVHVLHEPVGYRRLREPVEAYPEAEALLDSVLSQARHKAPGIAVTGELLVDASFSKAIVKASQGARITVLGTKGHGLIKGTIGSTAHAVLHHAHSPVLVSRRRATSEVA”, the protein production result is “failed”.

For “MTNVLYQHGTLGTLMAGLLEGTATINELLEHGNLGIATLTGSDGEVIFLDGKAYHANEHKEFIELKGDEKVPYASITNFKASKTFPLQQLSQDDVFAQIKNEMLSENLFSAVKIYGTFKHMHVRMMPAQQPPYTRLIDSARRQPEEKRQDIRGAIVGFFTPELFHGVGSAGFHIHFADDERAYGGHVLDFEVDDVVVEIQNFETFQQHFPVNNETFVKAKIDYKDVAEEIREAE”, the protein production result is listed as “not failed”.

With “MTNWLIAYQGEPGAYSEIAALRFGEPLPCESFDDVFSAVTEQKADYAVIPIENSLGGSIHQNYDLLLRRPVVILAETFVKVEHCLLGLPGASVETATKAMSHPQALVQCHNFFATHPQIRAEAAYDTAGSAKMVAESRDKSALAIASKRAGELYGLDILKENLADEEWNITRFFCIAHENN”, the protein production entry was “not failed”.

With “MTPHKQLILGGEQAFVGNVASGDFKNRPCPSDLGDIPGTVNPPEGRNPSQDFGQRWDWIQLNAEHMKFSSVSEEKPGLLAPPAQPLTKMFQGAWLCWASLLLLVRVTQPCPVGCDCFDRKIFCSDEQLAAIPLDIPSHVTDIVFVETSFTTVGTRAFSGSPNLTKVVFLNTRVHHLEPDAFGGLPRLEDLEVTGSPFSNLSANIFSNLSSLGKLTLDFNRLAALPEDLFHHMDTLESLQLQGNQLQTLPGRLFQSLRYLRTLNLAQNLLTQLPKGMFQSLSSLQILKLSDNMFARLPEGVLSNLGSLQELFLDSNAITELSPHLFSHLLSLEKLWLQHNAISLLPVSAFSSLRNLTFLNLKDNALRTLPAGLFTHNPGLLHLSLSYNQLETVPEGSFANLRKLASLTLSHNAITHLPENVFRNLEQLVKLSLDSNNLTVLHPTLFHNLSKLQLLDLSRNQLTMLPGGIFDTNYDLFNLALLGNPWQCDCRLSYLTSWLRLYNDRIFNTHTFCAGPAYLKGQLVPNLKQEQLVCPGNPGQLGLDDREPAGSWDLAVEGRAAHRQCIYGNPEGTVLLACEEAQCRWLNIQLSSREGSDVTAMAYNSSQEWELRSTCGSVRVTVSIEAQAAGP”, the protein production result is recorded as “failed”.

For the sequence “MTPMKTYDLIVIGTGPGGYHAAIRAAQLGLKVLAVEAGEVGGVCLNVGCIPTKALLHAAETLHHLKVAEGFGLKAKPELDLKKLGGWRDQVVKKLTGGVGTLLKGNGVELLRGFARLVGPKEVEVGGERYGAKSLILATGSEPLELKGFPFGEDVWDSTRALKVEEGLPKRLLVIGGGAVGLELGQVYRRLGAEVTLIEYMPEILPQGDPETAALLRRALEKEGIRVRTKTKAVGYEKKKDGLHVRLEPAEGGEGEEVVVDKVLVAVGRKPRTEGLGLEKAGVKVDERGFIRVNARMETSVPGVYAIGDAARPPLLAHKAMREGLIAAENAAGKDSAFDYQVPSVVYTSPEWAGVGLTEEEAKRAGYKVKVGKFPLAASGRALTLGGAEGMVKVVGDEETDLLLGVFIVGPQAGELIAEAALALEMGATLTDLALTVHPHPTLSESLMEAAEAFHKQAIHILNR”, the protein production entry is recorded as “not failed”.

Turning to “MTPNKEDYLKCIYEIGIDLHKITNKEIAARMQVSPPAVTEMIKRMKSENLILKDKECGYLLTDLGLKLVSELYRKHRLIEVFLVHHLDYTSDQIHEEAEVLEHTVSDLFVERLDKLLGFPKTCPHGGTIPAKGELLVEINNLPLADIKEAGAYRLTRVHDSFDILHYLDKHSLHIGDQLQVKQFDGFSNTFTILSNDEDLQVNMDIAKQLYVEKIN”, the protein production entry is “not failed”.

As to “MTPNYLDIAFLAVLGLFTLRGLFRGLVEEVAGLVGVIGGFWLANRHHADAAAYVGRVVEDPAWVGVLSYVVVFLGVLLVVSIVARIIRKLLVLSFAGWLDHLAGGAVGVAKGVIICSILLAVLMHFLPDASFVRDSRVIPHLAKVTSFIKGYLPQQIVN”, the protein production result was “failed”.

On to “MTPPEIDFFPDFIADPHRLFNHLKDSVLWDERMRARKTASFGAPYDYSQITYPAVPMPEALEQLCGPIEQLLGFRPNNCLLNCYPDGHSSMGFHSDANEQLVTGTGVVIVSLGHARAMVFRHKESGATFDYSLASGSLLHMSDELQKHWLHAIPKAPDAGERISLSFRQLKTGLEHHHHHH”, for which the protein production entry is recorded as “not failed”.

With “MTPPERVRRKCPQTNTREPIIQEPDTFEPEATRRDAGATESSRANRGWWDRNADDYQVEHGTFLGDDRFVWCPEGLDEVEAELLGPAEDLKGKDVLEIGAGAAQCSRWLAGQGARPVALDLSHRQLQHALRIGGDVPLVEADAGALPFADASFDLACSAYGALPFVADPVRVLREVHRVLRPGGRFVFSVTHPIRWAFPDEPGPEGLSVSASYFDRTPYVEQDEEGGAVYVEHHRTIGDRVRDVVAGGFRLLDVVEPEWPAWNTQEWGGWSPLRGNLIPGTAIFVCVRD”, the protein production entry is on record as “failed”.

As to “MTPSPHDLLHCGMNSQDRDETNGDRQRLVRVALGQEDGDLLVRGAQVVQPVTREVYAADVLVAGGRVAAVGPDLPARARRTVQARGAYLAPGFIDGHIHIESSLLTPASFAAAVLPHGTTAVVAEPHEIVNVLGPAGLNWMLGAGRTSGLRVYASAPSCVPASEFEQGGARVDAAQVAEMLARPGVLGLAEMMNYPGVLGGDAGVWDILNAGRRSGKRLDGHAAGLGGRELLAYAAAGLHSDHEATTPEEARERLRAGLWLMVREGSAARNLAALLPVLRDLPRRALLVSDDVSVDELLELGHLDRLLRTCVAGGLHPADAVALVTSQPAEYWGLHDLGVIAPGYHADFVLLRDLQHFGVLETFVGGEEARPGGETPPLPGGGVDLGPGWDGATFDPPAHWPTLQMFPDQIVTGRAAPGSGDARLVVADRYGRGEWSSCWTLGSGLRGGTLGISILHDAHQVALLGGSDADLRAAGRALERLGGGIVLVVDGEVREQLPLPYAGLMTDHAPAEAAAALGRVTAAARLLGCMPAGRL”, the protein production entry is listed as “failed”.

Turning to “MTPTQNVPEDRIQIGQLRSAYGLNGWLWVYSNTEPMSNMFDYLPWFIETKAGWQTVDVKRWKPHGKGLVVSLKNVSDRNAAESLIGSTIWVAKSQLPKTDVDEYYWSDLKGLTVLGLDEEEQEVNLGQIHELFETGANDVMVVRATADSVDAEERMIPWHKDVVQRVDLEAGRIYVNWGVDYLEHHHHHH”, the protein production result is “not failed”.

“MTPYQGEPLSLNFQDVEVRAVLQVLADYAGVNLVASDAVQGSVTLRLQDVPWDQALDLVLRSKGLSRRQEGNVLLVAPAAEFAAQSADARVSQALDAHLQPLRRELLPIHHAKAADLAQLLLAGLEGDGIPPASLSVDERTNTLVVHLPADRLAEMRQLVAQLDVPVRQVAIEARIVEANVDYEKSLGVRWGGPLYGEKLRPGKELFVDLGLERAGSSIGLGLLRGDVLLDLELSAMEKSGNGEIISQPKVVTADKETARILKGTEVPYQETSQSGATSVSFREASLSLEVTPQITPDNKVIMTVRVTKDEPDYVNALNNVPPIRKNEVNAKVRVADGETIVIGGVYSTSQNNVVDKVPFFGDLPYVGRLFRRDALQEKKSELLVFLTPRIMSDQAIAVSRLEHHHHHH”: the protein production entry is recorded as “failed”.

In the case of “MTPYTEVELTLIQYVLVVVSGFIIGLILGLIGGGGSILAVPLLLYFVGLGNDSSSFGNYSNITHLVLGTSALAVGLNAYINSFIHWRKGNVKVFEGVVFTIPGVIGSILGAYFGYLTTGNLILIMFGIVMILIGLRMIKSKCKEGSNETKGSGDTGVVKSKDRINIRIIYTGFLVGLASGFLGIGGGFLIVPALLFSTSMSIISAIGTSLISVGTFGLSTALTYASYGEIDYILSLILLAGGVGGGYIGTLLASKSPRSTLRKVFGVVLIVVAIYIIYRNLLL”, the protein production result is “failed”.

As for “MTQAATILRTGRKFDQVLRGAREVFMSDGFEGANVDDIARAAGVSKATLYSYFPDKRLLFVEVAQTECQLMAERILSMIDEDRPVREVLTITATQLVAFLISDFAQQVFRICLAERERFPELARAFYAAGPENGQRQICEYLEKAVTKGELVIADIPMAAEQFSELCKTRLWTRAVFGIQTRFTQAEIDEVALAAVDTFLARYGA”, the protein production result is given as “failed”.

Turning to “MTQDNASGDQVSKQHKAFLRKLYLAHLMDDARHNLLSLGKLTGMPRRTLQDAIASFADIGIEVEFVQDGERHNAGYYRIRTWGPISSAWMDTHVDEVKSLLGVDDAVGQATAGNGA”, the protein production result is on record as “not failed”.

In the case of “MTQETALGAALKSAVQTMSKKKQTEMIADHIYGKYDVFKRFKPLALGIDQDLIAALPQYDAALIARVLANHCRRPRYLKALARGGKRFDLNNRFKGEVTPEEQAIAQNHPFVQQALQQQSAQAAAETLSVEAEAAESSAAE”, the protein production result is “not failed”.

For “MTQHLTIAQTYLAAWNEEDNERRRHLVGQAWAENTRYVDPLMQGEGQQGIAAMIEAARQKFPGYRFVLAGTPDGHGNFTRFSWRLISPDGDDVAGGTDVVSLNTEGRIDNVVGFLDGAVS”, the protein production entry is on record as “not failed”.
